The conditions of this data set: Thermal, reversible: yes.
Where [1] appears, read: Methanobacterium formicicum, pH 2, DSC, glycine 25 mM, KCl 1.0 M.
Where [2] appears, read: Methanobacterium formicicum, pH 3, DSC, glycine 25 mM, KCl 1.0 M.
Where [3] appears, read: Methanobacterium formicicum, pH 4, DSC, glycine 25 mM, KCl 0.2 M.
[4] abbreviates: Methanobacterium formicicum, pH 4, DSC, glycine 25 mM, KCl 1.0 M.
[5] abbreviates: Methanobacterium formicicum, pH 5, DSC, acetate 25 mM, KCl 0.2 M.
Setting [6] is: Methanobacterium formicicum, pH 5, DSC, acetate 25 mM, KCl 1.0 M.
The mark [7] stands for this setting: Methanobacterium formicicum, pH 6, DSC, MES 25 mM, KCl 0.2 M.
Setting [8] is: Methanobacterium formicicum, pH 6, DSC, MES 25 mM, KCl 1.0 M.
[9] abbreviates: Methanothermus fervidus, pH 3, DSC, glycine 25 mM, KCl 0.2 M.
[10] abbreviates: Methanothermus fervidus, pH 4, DSC, glycine 25 mM, KCl 0.2 M.
The mark [11] stands for this setting: Methanothermus fervidus, pH 5, DSC, acetate 25 mM, KCl 0.2 M.
Where [12] appears, read: Methanothermus fervidus, pH 6, DSC, MES 25 mM, KCl 0.2 M.

“And” between values parts separate entries of the source, which are not always exact repeats. Equal entries are not always repeated.

The results in this text go back to FireProtDB (doi:10.1021/bi973006i).

Sequence of Archaeal histone B wild type, O59627 (O59627 whole entry): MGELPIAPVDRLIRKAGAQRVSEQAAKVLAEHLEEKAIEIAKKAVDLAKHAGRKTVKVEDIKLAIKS
Sequence of DNA-binding protein HMf-1 wild type, P48781 (P48781 whole entry): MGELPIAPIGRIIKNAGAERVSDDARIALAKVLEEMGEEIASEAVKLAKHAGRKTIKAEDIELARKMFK
Sequence of Archaeal histone A1 wild type, P48782 (P48782 whole entry): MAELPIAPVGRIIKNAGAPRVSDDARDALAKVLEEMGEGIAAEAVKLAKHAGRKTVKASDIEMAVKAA

Take Archaeal histone A1 wild type, P48782: the Tm (in general, the temperature at which the thermal transition is half complete) was determined as 60.3 °C (Methanobacterium formicicum, pH 2, CD, glycine 25 mM, KCl 1.0 M); 64.7 °C under setting [1]; 73 °C (Methanobacterium formicicum, pH 3, CD, glycine 25 mM, KCl 1.0 M); 77 °C under setting [2]; 91.5 °C (Methanobacterium formicicum, pH 4, CD, glycine 25 mM, KCl 1.0 M); 75.6 °C under setting [3]. Besides, the midpoint of thermal melting (Tm) runs as follows: under setting [4], 90.3 °C; (Methanobacterium formicicum, pH 5, CD, acetate 25 mM, KCl 0.2 M) 74.8 °C; (Methanobacterium formicicum, pH 5, CD, acetate 25 mM, KCl 1.0 M) 92 °C; under setting [5], 76.9 °C; under setting [6], 90.9 °C; (Methanobacterium formicicum, pH 6, CD, MES 25 mM, KCl 0.2 M) 70.9 °C. For the same substance, the midpoint of thermal melting (Tm) is, setting by setting: under setting [7], 76.5 °C; under setting [8], 90.5 °C. Moreover, the “unfolding enthalpy (calorimetric)” value under setting [1] was found to be 10.5 kcal/mol; the “unfolding enthalpy (calorimetric)” value under setting [2] worked out at 35.4 kcal/mol; the “unfolding enthalpy (calorimetric)” value under setting [3] turned out to be 45.6 kcal/mol; the “unfolding enthalpy (calorimetric)” value under setting [4] turned out to be 47.1 kcal/mol; the “unfolding enthalpy (calorimetric)” value under setting [5] is 36.9 kcal/mol; the “unfolding enthalpy (calorimetric)” value under setting [6] stood at 41 kcal/mol. Also, the “unfolding enthalpy (calorimetric)” value reads like this: under setting [7], 63.9 kcal/mol; under setting [8], 50.4 kcal/mol. In addition, the “unfolding enthalpy (van 't Hoff)” value under setting [1] was 115 kcal/mol; the “unfolding enthalpy (van 't Hoff)” value under setting [2] came to 109 kcal/mol; the “unfolding enthalpy (van 't Hoff)” value under setting [3] was 91.1 kcal/mol; the “unfolding enthalpy (van 't Hoff)” value under setting [4] came to 129 kcal/mol; the “unfolding enthalpy (van 't Hoff)” value under setting [5] stood at 114 kcal/mol; the “unfolding enthalpy (van 't Hoff)” value under setting [6] came to 124 kcal/mol. The “unfolding enthalpy (van 't Hoff)” value was determined as 94.9 kcal/mol under setting [7] and 122 kcal/mol under setting [8].
Turning to Archaeal histone B wild type, O59627, the melting temperature (Tm) amounted to 107 °C (Pyrococcus furiosus (strain ATCC 43587 / DSM 3638 / JCM 8422 / Vc1), pH 4, CD, glycine 25 mM, KCl 0.2 M); 114 °C (Pyrococcus furiosus (strain ATCC 43587 / DSM 3638 / JCM 8422 / Vc1), pH 5, CD, acetate 25 mM, KCl 0.2 M); 110 °C (Pyrococcus furiosus (strain ATCC 43587 / DSM 3638 / JCM 8422 / Vc1), pH 7.5, CD, phosphate 25 mM, KCl 0.2 M).
As for “DNA-binding protein HMf-1 wild type, P48781”, the Tm (Methanothermus fervidus, pH 2, CD, glycine 25 mM, KCl 1.0 M) turned out to be 94 °C; the Tm (Methanothermus fervidus, pH 2.5, CD, glycine 25 mM, KCl 0.2 M) came out at 78.2 °C; the midpoint of thermal melting (Tm) (Methanothermus fervidus, pH 2.7, CD, glycine 25 mM, KCl 0.2 M) worked out at 84.9 °C; the Tm (Methanothermus fervidus, pH 3, CD, glycine 25 mM, KCl 0.2 M) was 84.6 °C and 89.3 °C; the melting temperature (Tm) (Methanothermus fervidus, pH 3, CD, glycine 25 mM, KCl 1.0 M) was 101 °C; the Tm under setting [9] is 96.1 °C. Besides, the midpoint of thermal melting (Tm) is 94.1 °C (Methanothermus fervidus, pH 3.3, CD, glycine 25 mM, KCl 0.2 M); 103 °C (Methanothermus fervidus, pH 3.7, CD, glycine 25 mM, KCl 0.2 M); 100 °C and 103 °C (Methanothermus fervidus, pH 4, CD, glycine 25 mM, KCl 0.2 M); 97.6 °C under setting [10]; 104 °C under setting [11]; 101 °C under setting [12]. The “unfolding enthalpy (calorimetric)” value by setting is: under setting [9], 14.1 kcal/mol; under setting [10], 41.3 kcal/mol; under setting [11], 37.3 kcal/mol; under setting [12], 44.5 kcal/mol. In addition, the “unfolding enthalpy (van 't Hoff)” value is, setting by setting: under setting [9], 139 kcal/mol; under setting [10], 158 kcal/mol; under setting [11], 164 kcal/mol; under setting [12], 158 kcal/mol.
